Assay: label from the status in PepcDB records

Sequence | protein production
MTDKIFQEKVGPVALTIVPTQKYKSNKIVFKFRAPLERETVTKRSLLSILLETNSEKYPTQTAFRKQLANLYGANFYTTTAKKGNEHVLTVVFDMIDGQYVSDGENILKDAFAFIEQAIFQPNATNGAFDEEIVVREKENLKSSLEGIYDDKIRFASKRLVEEMFRDDEFRFGAAGVLEDVDAITAKDLYEYYLKFIKEDVIEIFICGDVTKEEVMPLIEKMAFSPRPERKGVFYTKEAPKETRVIHEQQAINQGKLVLGYQTETLFGDDDFVALQLANGLLGGFANSKIFINVREKASLAYYASSRIDSFKGYMIISAGIDEVNYKQALTIIEEQIVAMKQGDFTEDELNQTKEMLINQLLETNDQAQGLIELAYNNVLREANLDLENWIIKIKQATKQEVVAAINKIKPDTIYFLSKGGEELHGKNHI | failed
MAKRKKKEVFDWEDEDQEEIIWVSKSEIKRDAEDLKQLGEKIVNLTKANLAKIPLDESLLDAIELAQRLQKEARRRQLQYIGKLFRGIDVEPIREALDKIENKHNQQQAMLHKIEKVRDELVEKGDVALTDLLNDYPNGDRQQLRNLIRSAQKELEQNKPSKAYREIYQMLKVLMLED | failed
MKYIINHSNDTAFNIALEEYAFKHLLDEDQIFLLWINKPSIIVGRHQNTIEEINRDYVRENGIEVVRRISGGGAVYHDLNNLNYTIISKEDENKAFDFKSFSTPVINTLAQLGVKAEFTGRNDLEIDGKKFCGNAQAYINGRIMHHGCLLFDVDLSVLANALKVSKDKFESKGVKSVRARVTNIINELPKKITVEKFRDLLLEYMKKEYPEMTEYVFSEEELAEINRIKDTKFGTWDWNYGKSPEFNVRRGIKFTSGKVEVFANVTESKIQDIKIYGDFFGIEDVAAVEDVLRGVKYEREDVLKALKTIDITRYFAGISREEIAEAVVG | not failed
IKKNVFNIFYLFLVLEELKGPVLYIVGTPIGNLEDITYRAIDVLKSVNVIFAEDTRVTSKLLSRYKINKKMISCNAVTENKKISLLLDYLAKGNSVAFVSDAGTPGLSDPGSLLVAAAFREGYKVCPIPGV | failed
MSLSPDLLLAFALFALVTSITPGPNNTMLLASGVNFGFNRSIPHILGISCGFFVLVLAVGLGLGAVFEAYPLLYSVLRYVGAVYLLYLAWKIARSGPLSDEQQHHGRPLGYWGAAAFQWVNPKAWVMAVGAISTYTPLQGYFTNVLVIAAVFALINAPTVSLWAACGSLLRNVLRNPRWLRLFNLLMAALLVLSLAPLLFEKMS | failed
MHQPHLSAEEKQHSHDHLSLDLIEAQYQLKNSAGKKNAKSVLVLVSGIELAGKGESVKQLREWVDPRYLRVKADPPQLLTTNQTFWQPYSSFIPAEGQIVVLFGNWYSDLLTTAMHVSKPLDETLFDAYVNSMRAFEQDLKNNHVDVVKVWFDLSWKSLQKRLDHIDASERQWHKLHGLDWRSKKQYETLQKLRQRFTPDWVFIDGEDEALRDREFAECILKALKDVPDHVQQADAAWTQSVVPQALLQPSSEVLEKAKYKKKLKKLTRRVADALRYDQRNVIVVFEGMDAAGKGGSIKRIVKRLDPREYDIFTISAPEKYELRHPYLWRFWTKLQNCSDIRIFDRSWYGRVLVERVEAFASDIEWQRAYDEINRFEKDLTDSQTVIVKIWLSISKEEQEKRFEAREKTPHKRFKITEDDWRNRAKWDEYLNAAADMFEHTSTDCAPWTIIATDDKPTARIKMLKAILKQLKSK | failed
MVRPYGIKVNKRKEREERYDKEEDEVEEQPKFEQKQKARESSKKAKKESTSRAEEDNDEEEVTVEATAAAEDIVGGIPIVLNAPNKEKSGIVFVLEKASLEVAKVGKTYQLLNSDDHANFLKKNNRNPADYRPDITHQALLMILDSPVNKAGRLKAVYVRTEKGVLFEVKPHVRIPRTFKRFAGIMLQLLQKLSITAVNSREKLLRCVKNPIEEHHLPVNSHRIGFSHSSEKLVNMQKHLATVCDDDRDTVFVVGAMAHGKIDCNYIDEFVSVSEYPLSAAYCISRICEALATNWNII | failed
MDLWKLYQPGTPAAIVAWGQLGTAHAKTTYGLLRHSRLFKPVCVVAEHEGKMASDFVKPVRYDVPVVSSVEKAKEMGAEVLIIGVSNPGGYLEEQIATLVKKALSLGMDVISGLHFKISQQTEFLKIAHENGTRIIDIRIPPLELDVLRGGIYRKKIKVVGVFGTDCVVGKRTTAVQLWERALEKGIKAGFLATGQTGILIGADAGYVIDAVPADFVSGVVEKAVLKLEKTGKEIVFVEGQGALRHPAYGQVTLGLLYGSNPDVVFLVHDPSRDHFESFPEIPKKPDFEEERRLIETLSNAKVIGGVSLNGGFETDLPVYDPFNTDDLDEMLERAMVW | not failed
MKYIIIGLGNYGGVLAEELSVLGHEVIGVDTNEHRVDVLKDKIATSFIIDATDEQSLSVLPLKDVDVVIVAIGENFGASVRVVALLKKKGVKHIYARAVDDVHKTVLEAFNLDSILTPEKEAARSLVQLLDLHVNVESFQIDEEHYVMKFKLPSCFVGYKVSDLSLETEFNIKIIALIKGEKVLNGLGISILEHQVENHFEENYELEEEDQLVCYGLYKNFMDFWKAL | failed
MDDLKTRVITASVVAPFVVLCFVSYESLIGLVSAILILAGYELITLEMKERDARFFYVILLALYPVLYGLVFEEPTQPLSILFITGVVFSLITDKDPSQVFKTVAAFSIALIYVTFFLSFFLPIYRDFGAANALLVLTSTWVFDSFAYFTGLKFGRTRISPRYSPRKSLEGVIGGFLGVVIYTFLYRLVVNDLLSVNVISFRTFLPFAATVAIMDTFGDIFESALKRHYGVKDSGKTLPGHGGMLDRIDGLLFVAPVSYIVFKILEGVVR | failed
SNSIGLRQSVSDKGIEIVNLLAPKVEMLGFDLLGAEYLLVPSGAILRLYIDIPFAMQPECMVSIDDCERVSREVSAYLDLEEPISGNYTLEVSSP | failed
MTTASGPGDLPAGSPVSSLHEALDQCMTALDLFLTNQFSEALSYLKPRTKESMYHSLTYATILEMQAMMTFDPQDILLAGNMMKEAQSLCQRHRRKSSMTDSFSNLVHRPTIDQFTEEEIHAEVCYAECLLQRAALTFLQDENMVSFIKGGIKVRNSYQTYKELDSLVQSSQYSKGESHRHFEGGVKLGVGAFNLTLSMLPTRILRLLEFVGFSGNKDYGLLQLEEGATGHSFRAVLCVMLLLCYHTFLTFVLGTGNVNIEEAEKLLKPYLNRYPKGAIFLFFAGRIEAIKGNIDAAVRRFEECCEAQQHWKQFHHMCYWELMWCFTYKGQWKMAYFYADLLSKENSWSKATYIYMKAAYLSMFGKEDYKPFGDNEVELFRAVPGLKLKIAGKSLPTEKFAIRKSRRYLSPNPISLPIPALEMMYIWNGYAVIGKQPTLTDGMLEVITKAEEMLAMGPENEYSADDDCLVKLLKGLCLKYLGRIQEAEENFRSISANEKKIKYDHYLIPNALLELALLFMEQGRNEEAIKLLESAKQNYKNYSMESRTHLRIQAATLQARSSLEDGNRSLVSSVSL | failed
MRLLFSFSCRRRWRERERLRRMREIKMIKLPHKKPIIFFCQLFLIATLIIACHQTTIHTSTNTCTPNYNPNQDYFPNKIKITHARGLAVEYHKHYKVVTIKNPWQNAKTQFQYVLVQCGTPTPQGFKQAQVITVPIHSIVSLSTTHLPHLAKLGVVDKLIGISNSKQVNTPDVVERIKAGKITQVGNNSNVDIERLLELNPDLVTTFGTGNSQTDSYSKLTEAGLKVGINAEYMEDTPLGRSEWLKFTALFFNQEEKAEKIFAEITDKYEQVAQKVKSVKNRPTVFVGFNFKGTWFMPGGNSYVAKYLADAGGDYLWSNEQSAGSLPLSFEVVLERATNADYWLNFSQSWQSLKDLLAEDNRYADFKSVKIGNLYNNNARVNESGGNDYWEGGISNPDIVLSDLIRILHPEILPNHQLFYYHKILK | failed
MSNFEKRNRKMAEKNIRKPKQERSIEKRNKILQVAKDLFSDKTYFNVTTNEIAKKADVSVGTLYAYFASKEDILTALLKRYNDFFLTTIFADINSQDSLDRFKKNPKEWLNVLINQLLAAEDKIFHAQIEMLAYAIPQAKALLEEHNNNLKNLTYKCLLYYSDQAANPSFKTLSLVVFDFISALVDELLYHEHTQEEAHQIKKTGIDSLDLIIKSYL | not failed
MPKERVDVLAYKQGLFETREQAKRGVMAGLVVNVINGERYDKPGEKIDDGTELKLKGEKLRYVSRGGLKLEKALAVFNLSVEDMITIDIGASTGGFTDVMLQNGAKLVYAVDVGTNQLVWKLRQDDRVRSMEQYNFRYAEPVDFTEGLPSFASIDVSFISLNLILPALAKILVDGGQVVALVKPQFEAGREQIGKNGIVRESSIHEKVLETVTAFAVDYGFSVKGLDFSPIQGGHGNIEFLAHLEKTDSPQNDVPTSIKEVVAQAHKEFKKNEEERSFGVNPKDCPRK | not failed
MSSERLIYLPLGGAGEIGMNAYVYGYGKPDAERLIVVDMGVAFPDMDGSPGVDLILPDITWLQERRDRIEAVFVTHAHEDHVGAVAHTYEKLGAPVYARAFTANIARRKMAEHGHPEDAVHTVSPWPETVSAGPFKVSFLPISHSIPESSAMVIDTPEGRVIHSGDFKLDETPLVGEAFDPELWAEVSKEGVKALICDSTNVFSQHPGRSEASVGPEITNLVQSAEGMVVATTFASNVARVKTLADAGVRAGRSIVLMGRAMRRMIEAAAETGVLQDFPSVVSPEDARSIPRENLMLLVTGSQGERRAASAQLARGKYQGMEMKEGDLFPFSSKTIPGNEKGVIRIINAFSELGVDVVDDSSGLYHVSGHANRPDLERLSEIVNPQVVIPMHGEHRHLREHVKIAEQNGRTGVLAVNGMMVDLSGNQPKIAEYVETGRTYLDGTVQIGALDGVVRDRIRMALNGHVVVTLIVDEDDEPLGDPWCELKGLPETGRSKASLVDVLEADLGQWLGRADPKTMRDDDKLNEGLRRVVRQTSQDEIGKKPEVSVIVSRLS | failed
MENIPFLRASTVPVIEYLDELKEIDASHIYTNYGPINQRFEQTIMSGFFQNRGAVTTVANATLGLMAAIQLKKRKKGKYALMPSFTFPATPLAAIWCGLEPYFIDISIDDWYMDKTVLWDKIEELKEEVAIVVPYATFGSWMNLEEYEELEKKGVPVVVDAAPGFGLMNGGMHYGQDFSGMIIYSFHATKPFGIGEGGLIYSKNEEDIQRIKRMGNFGFDTNRECTMMGFNCKMSEYAAAIGIATMKKWDDKLKERTRISEWYKQLLQSNGLMKKGWQLQKTEAVIQQFMPILCPEEVRNKQVIEDLKKQKIEARLYFSPSCHQQVLFRNYKSTDLTRTNKIAKRIVSLPLWEGMTKEIVEQIVICLGQKVVSADE | not failed
MSSTPATPAISPTQQSALALWRMRLITLLPLGAIAWISMVLADHPAIAHYGLSALTLAMGAGMVAANTMPKHWLAPLAPGMQFARHHLLRLGVALYGLRLTFGAIAALGVGGVVVPLTMLVATLLFGTWVGSSFFGLSRREAILVSAGSAVCGAAAAIAVSSVVRTDDRQTAVAVATVVLFGTVGMLLYPWLYELATQHWHLAISERSFGIFTGATLHEVAQVIASGKMVSDGAADAAVVAKMVRVLALGPLLLVMALWPRTSWSQASGGSRNLHGLLRSVPWFALGFVAVMALNSAQMVPADWKPALIGFDNWMLACAMLAIGLHTRIGDLLRAGRKPLALAGVLFLFLMVVGAALCALLV | failed
MLDGWQEIEADQIKRMQSALWHLLGNAIAYLSLFVIELVLATIGHSQSLHADAFNNFAGIVSSGLLSLGIWGGIHNHQSHQSKVTALDGWEAERRNRLMRFRLQDLFTLMSGVIMLVMAVQVIVSGVSNLFKSHTVQAVSGVTVWGAAIASIVMLVVWYFNRRGGQQLDNSTLLAAAKDSLSDALTSIGTLISLSGVLLFKFAWLDSVASIVIGFFIFAAGLQIFRDSGLQLINYSDPQVEKNYINTIQQIDGVNQVNAIDVQYSGSLVALSLVIAVSPRMTVAASFQLSERIEQVMRNQYGIIDTKVMFMPQT | failed
MRSLCAGGRAIGLSGPDSRRHHRPQGPSEGASLILPDLSSSIAVGALIYWMLLLTIKHVFADFIFQNKWMAMGKDAKTGWALPLLAHCSVHLVMTTLLMLILAPRYWYIGVIDFLIHLAIDRLKGFLVATYDVTNQDRWFWWLIGTDQALHHLTGFGLAIVLAANP | failed
RSPPSNLALASETPDSLQVSWTPPLGRVLHYWLTYAPASGLGPEKSVSVPGARSHVTLPDLQAATKYRVLVSAIYAAGRSEAVSATGQTACP | not failed

From a protein production outcome set (Wang et al. 2014)
